{
  "source": "patent US20020012949A1",
  "about": "“Assay systems for leptin-enhancing agents” (priority 1997, published 2002)",
  "molecular_target": "T1, OB-R (Homo sapiens, UniProt P48357)",
  "T1 construct": "The cytoplasmic domain and full-length human OB-R was cloned by PCR; expressed in transfected cells; host or cells: COS-7",
  "T1 sequence (P48357 22-1165)": "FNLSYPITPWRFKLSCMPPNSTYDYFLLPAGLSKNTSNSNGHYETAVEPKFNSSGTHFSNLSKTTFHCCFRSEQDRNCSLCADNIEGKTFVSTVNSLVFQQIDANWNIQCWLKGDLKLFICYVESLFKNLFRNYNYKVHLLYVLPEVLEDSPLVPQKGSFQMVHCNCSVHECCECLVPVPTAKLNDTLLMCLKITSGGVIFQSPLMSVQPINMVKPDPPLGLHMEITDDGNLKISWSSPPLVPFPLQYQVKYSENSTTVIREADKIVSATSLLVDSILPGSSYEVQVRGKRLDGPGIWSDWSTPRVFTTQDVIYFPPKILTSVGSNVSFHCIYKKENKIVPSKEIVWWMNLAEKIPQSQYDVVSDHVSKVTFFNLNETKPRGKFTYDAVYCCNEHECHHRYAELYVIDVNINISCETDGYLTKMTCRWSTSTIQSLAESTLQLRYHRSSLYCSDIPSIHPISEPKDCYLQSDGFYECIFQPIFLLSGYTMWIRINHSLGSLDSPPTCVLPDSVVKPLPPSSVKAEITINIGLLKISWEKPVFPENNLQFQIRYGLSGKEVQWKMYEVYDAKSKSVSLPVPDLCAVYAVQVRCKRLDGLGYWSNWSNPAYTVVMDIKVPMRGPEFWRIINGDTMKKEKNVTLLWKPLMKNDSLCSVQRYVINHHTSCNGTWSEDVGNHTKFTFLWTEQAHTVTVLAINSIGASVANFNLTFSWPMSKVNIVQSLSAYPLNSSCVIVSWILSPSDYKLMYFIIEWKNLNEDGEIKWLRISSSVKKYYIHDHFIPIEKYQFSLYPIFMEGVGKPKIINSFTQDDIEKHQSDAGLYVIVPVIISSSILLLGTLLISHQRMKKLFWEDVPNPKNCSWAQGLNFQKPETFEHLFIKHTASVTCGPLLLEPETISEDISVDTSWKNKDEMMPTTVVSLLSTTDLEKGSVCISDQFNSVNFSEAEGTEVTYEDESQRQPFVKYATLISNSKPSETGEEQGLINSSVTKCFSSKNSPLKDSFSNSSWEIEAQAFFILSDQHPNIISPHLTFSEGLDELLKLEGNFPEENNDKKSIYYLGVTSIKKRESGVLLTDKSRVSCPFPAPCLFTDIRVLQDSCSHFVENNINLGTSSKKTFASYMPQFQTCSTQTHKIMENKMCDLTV",
  "test": "Immunoprecipitation and western blotting of tyrosine phosphorylation, leptin-stimulated COS cells expressing OB-R",
  "assay_type": "cell-based",
  "conditions": "100 ng/ml human leptin for 10 min",
  "procedure": "The cytoplasmic domain and full-length human OB-R was cloned by PCR using human fetal liver and adipocyte cDNA (Clontech) and cloned into the expression vectors pCMX and pMT21. Chimeric receptors were constructed by fusing the extracellular domain and transmembrane domain of TrkC (amino acids 1 to 458) to the cytoplasmic domain of OB-R (amino acids 865-1165). A triple myc epitope tag was added at the C-terminus of all OB-R constructs (18). Truncation and point mutant constructs were generated by PCR and the sequences of all constructs were verified. Expression constructs were transfected into COS-7 cells using lipofectamine (GIBCO-BRL); 36-48 hours after transfection, cells were starved for either 2 hour,s for chimeric receptors or overnight for full-length receptors prior to stimulation.\nCells were stimulated with 50 ng/ml of human NT-3 for 15 min or 100 ng/ml of human leptin (R&D Systems) for 10 min. Cells were then lysed in a 1% Brij 96 buffer and receptor was immunoprecipitated with anti-myc antibody 9E10 (18) followed by protein G-sepharose (Pharmacia). Unbound lysate was then immunoprecipitated with anti-P-Tyr antibody (UBI, Lake Placid) or agarose-conjugated anti-SHP-2 antibody (Santa Cruz Biotechnology). […] Endogenous STAT3, SHP-2, Jak1 and Jak2 is being detected in all immunoblotting experiments. […]",
  "data": [
    {"substance": "leptin: the product of the obese gene, secreted by adipocytes; ligand of OB-R", "values": [
      {"measurement": "tyrosine phosphorylation of receptor, STAT3 and SHP-2", "value": "results in phosphorylation of the receptor, STAT3 and SHP-2"}
    ]}
  ]
}
